This is an account of results in article PMC7438487, “Structural studies reveal flexible roof of active site responsible for ω-transaminase CrmG overcoming by-product inhibition” (Communications Biology, 2020).

The assay deals with ω-transaminase CrmG from Actinoalloteichus cyanogriseus WH1-2216-6 (Actinoalloteichus cyanogriseus WH1-2216-6). The experiment in a line: dynamic light scattering; apo CrmG at 4.8 mg/mL in 50 mM Tris buffer pH 7.5, 20 °C, DynaPro Titan.

Regarding “ω-transaminase CrmG from Actinoalloteichus cyanogriseus WH1-2216-6 (enzyme)”, the stoichiometry N amounted to 2.

As usually defined, the stoichiometry N is the number of molecules, sites or subunits per partner or assembly.
